Reference: the RNAGym collection of RNA variant scans (doi:10.1073/pnas.2313332121)

B1: TPR t1 (parent)
chain: GACCAAUCUGCCCUCAGAGCUCGAGAACAUCUUCGGAUGCAGAGGAGGCAGGCUUCGGUGGCGCGAUAGCGCCAACGUCCUCAACCUCCAAUGCAUCCCACCACAUGAUGAUGCCUGAAGAGCCUUGGUUUUUUG

Variants of: B1
Test: polymerase ribozyme fitness, log enrichment relative to wild type (log ratio); higher = more active; in vitro selection for triplet polymerase activity
Outline: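 Input and output libraries were sequenced on Illumina after a single in vitro selection round, run in triplicate on PCR-built, transcribed mutant libraries of each subunit of a heterodimeric triplet polymerase ribozyme. Selection annealed libraries to a biotinylated primer, the partner subunit and triplets, incubated them frozen at −7 °C, then gel-excised extended constructs for streptavidin-bead capture and RT-PCR. Genotypes with ≥10 input reads and ≥1 read per output were kept. Fitness is the logarithm, taken in base 2, of genotype enrichment divided by wild-type enrichment, using inverse-variance-weighted replicate averages.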

Variant | polymerase ribozyme fitness (log ratio)
C20A U32A G35C G71U C115A | -5.14
C20A C79U | -2.47
C20G A41U C56G G63C A95U A119U | -5.15
C20A G110U | -3.99
C20A G48U A50U G120U U132C | -4.56
G19U C76U | -4.25
G19U C72A | -3.06
C20G C72G | -4.5
C20G C53G G57C A91G | -5.64
C20A C53A U78G C82G U112A | -0.686
G19A C62U U78C G127C | -4.4
C20G C62A C98A G110C C114A | -8.01
C20A G117U U133A | -4.77
C20A G57A C72A U87A | -4.5
G19A C22A G113C | -4.67
C20G C89G C98A G120C | -2.55
C20G C34A A41G C53A G69C G120C | -6.31
C20A G57C C62U G120C | -2.1
C20A C56A C76A C82U | -4.8
G19A U87A | -2.78
G19A G58C C94G G120C | -3.72

Variant | polymerase ribozyme fitness (log ratio)
G19A A121C | -1.3
G19C C28U C34A C53G C64A C114U U126C | -6.21
C20A C28U A46C G113U C115A | -4.17
C20G C123U U126A | -3.94
C20A U54G C64G G113C | -7.15
C20A U106C | -2.55
G19U C56U | -2.37
G19A U116G | -6.24
C20G C40U G42U C56A | -4.45
G19C A37U C62G C124U | -3.51
C20A C72G U81A U109A A118C G122A | -5.92
G19C G44C C70A G93C C124G | -5.3
C20G U112A | -2.38
C20A G23C U33C C62U U106A A108C G117C | -8.64
C20G C56G A95C G117U C124A | -3.93
C20G U21A U112A | -0.639
C20G G44C C73U U78A A95C | -6.9
C20A C40A C76G C124A | -2.76
G19A G69C G110C | -6.61
C20A C79A U131A | -3.6
G19C C89A U125G | -2.33

Variant | polymerase ribozyme fitness (log ratio)
G19U G51A G60C G120A | -6.42
G19U C53G U54A G61A | -2.73
G19U G44A C70A C72U | -6.42
G19A G51C | -5.83
G19A G51A | -5.49
C20A G61C A121G G128U | -5.15
C20A A111G | -3.92
C20A C34U C72U C76A C82A A121C G135U | -6.49
C20A G52C C72A | -2.79
G19U A43G G47U C76G G113A A119C U131A | -4.34
C20G C56G | -4.45
G19U G110U | -5.11
G19A U78G C80U | -3.52
G19A C89A | -2.63
C20A C49U | -3.79
C20A U92G G122U | -4.6
G19C U81C C124G | -0.981
G19U G60A C79U G120C | -2.44
G19A C73U C82U C114A | -1.84
C20G A90C C98U C124A U126A | -4.21
C20G A46U G120A | -4.96

Variant | polymerase ribozyme fitness (log ratio)
C20A G36A | -4.23
G19C G61A G113U U129A | -4.11
C20G U109G | -3.38
G19A C20A A66G G69U U96A | -4.02
G19C A43C G44C C64A A105C A111U | -7.06
G19U C62G G71U | -3.71
C20A A50U G120A | -3.84
G19U G44U | -4.75
C20A G58C C72U C76U | -3.69
C20A G42U G47U C53U G120U | -3.98
C20G G44A | -5.14
G19C C20A G71A A95U C102U U116C C123U U126G | -6.03
C20A G60C | -3.33
C20A A37U G61A A121C G122A | -1.31
G19U C53G U54A C124A G128A | -3.23
G19U A24G U38C G61U G113A | -3.85
C20A C56A C98U | -3.64
G19A G42U G45C A50U | -4.81
C20G G42A G45A U54G C79U C123U | -6.38
G19A C86G C101U | -4.15
